# In the DeepSol protein solubility set:
# Assay: soluble on expression in E. coli; label from the status in PepcDB or PDB records
row,Sequence,soluble on expression in E. coli
1,MSVEPNHYLEITRSHVHQIYRELETSGKVITVDLVRKPYYDVDEDNKTLLQVFREHNEQSRKLIGKDFISKTVQRYETTTRYLEEFIKKEYQLSDIALNNLEANFISKFDAFLKIEKGCAQNSAITRLKNLKKIIRIALENDWIKKDPFAYYRFKLKETYPEFLTMDEIKIILAKEFTIKRVEQVRDVFIFCSYTGLAFSDVKDLSPEHLLKDNKGELWIKIFLSFHSSVFSSKNLHRLNTSLAKSMIQIKF,not soluble
2,MTIEHGIWPGKIDIYEKNFNTGQKCMRNPFQNPFPESDTARHSIWEMLVSRDIDAFLAADWSMVADDFVEESFIGVDGRRETNPDKWRLTFPSLAVYRDEWLRQARDFAGQSFAEDPREAIFTTTTLEDIEVDGELALARKKFDGGLKKADGTFDVMKWQTVYYCRLHRGRWKICGFTGYLPNPMGSN,soluble
3,MIDCLVMAGGQGARMGFREKPLLSVCGQPMLLRVLSALRMACRRIAIVYSRHTPGVKRLCLSGALGAVECIEGPGSYVKDLRLGFSHISTPLLVAPADMPFLNPHHLNLFIDRALADGASIVNLSLRGRGLTGLSVFKHHRGWWRDVETNGCWALDVDTWEDFRRAGELCGGECTGEGLRLELLEHHHHHH,not soluble
4,VAESKLVIGDRSFASRLIMGTGGATNLAVLEQALIASGTELTTVAIRRVDADGGTGLLDLLNRLGITPLPNTAGSRSAAEAVLTAQLAREALNTNWVKLEVIADERTLWPDAVELVRAAEQLVDDGFVVLPYTTDDPVLARRLEDTGCAAVMPLGSPIGTGLGIANPHNIEMIVAGARVPVVLDAGIGTASDAALAMELGCDAVLLASAVTRAADPPAMAAAMAAAVTAGYLARCAGRIPKRFWAQASSPAR,soluble
5,MKVIIFYTKTGGGHLSACKSLEESLNSMNIPVVTLDSLEFAGHLVSKEICSAYNYIVKSVPELFGALYNAGEKISDHNKKSIIYKLNSFYADNILTVLEEEQPDIIISTHIFATQSLSYLKQKNKVKALTASIVTDYTCAPFWEETDLDYYFLPHKDLIKEFKDKGLDSSKLIAFGLPIDSKFKVKTPKEKAKFNLALKKDKPHILIMGGSMGAGSVKDTTLYISKHLKECNITTICGNNKELFKEISEIKKSNPKIHVLQFTHEMNELMDSADILITKPGGLTSTEAMNKSLPIIMINPIPGVESANCNFFMKHNLGIKSNSLHETLKVCEKLISDKNFYEKIVSSQKLNSNINAAEDICKFLITKYHEIQYNSDNNSLLEHHHHHH,soluble
6,AHHHHHHGSPKIGIIGGSGVYGIFEPKETVKVHTPYGRPSAPVEIGEIEGVEVAFIPRHGKYHEFPPHEVPYRANIWALHELGVERVIAVNAVGSLKEEYKPGDIVIIDQFIDFTKKREYTFYNGPRVAHISMADPFCPELRRIFIETAKELNLPVHEKGTYICIEGPRFSTRAESRMFRQFADVIGMTLVPEVNLARELGMCYVNISTVTDYDVWAEKPVDAQEVLRVMKENEEKVQKLLKRAIPKIPEERKCGCADVLKTMFV,not soluble
7,MKLAIIIPVYNAEETIKRAILSVDTSVPYEIICINDGSTDQTQHVLTELQQKHPHIKVIHQSNQGAARSRNVGLEAMSEDVDAFLFLDADDEFLPSRIDLMVNAFNKNKETDVVIGQMARDVNGEWQVISTHQSMVKDAIVTLDRKPDILQSIGPGAKLFSSKYAGLRFDEDVVFCEEHTFIVKAFSKARDIQLIPNIVYGYNEREGSVTAQRADTFLPYMSDALKVRQRVMELLLLLDEKIYYSYRMDNLIVSYLIQAHLKKNNKITQSLLESVIEYMKAMQHTHYSGEAMFRIVRAVEQSATHWTKPLYLQWKKALSEVGIGRPGLIRFKLQVIPKKISFSGKESLKRIFKK,not soluble
8,GPGSMQAARLPTRIATGDGEDAPQTPPVHAPATPAATDEQETDQPQQAVGEATTPADRAGFQPPSAEALATRQSRNSAGAEKMGGGQRLRDHTTAQRRLMQDYRTFQKNMAEGTSSNITALPVDGDFFHWHAVISGPCDTPWEGGLFKLDLIFGDDYPFSPPKVRFRTKDVFHPNVYVDGNICMDTLKSSWQSSLNLEALLISIQSLLSDPNPLSAANGAAARLLTENRSAYDEKIRALVEESLEQSFSMDDDSDDAEVDEEAV,soluble
9,MAICPELAQTDKSALANLSDETETLKNFTDEVQTSSSFSSSGGRQSSPLTSGSKLEREKQTPSLEQGDTQSELLDYKNYEKKLSKKWINYLKLKDSNFERHQPDTKLPTEITRVSDEELNALQSYCTMKINLIHRRGDSKKKTSSRHKKLHLGLDVEASERDAFSCTVPDELLNRIYFKNMRTTPKQEAAAKQHISYQCPYCNRKRAELALSAFLKQKKTLLESFLLQERIDEHLHTKDFLTRIGEAHQDFPRLSDDPRIIWKRLTEKSHIRYSGFERSETEQKMQRDGNSACHLPFSLPFLKRLTLIKPELVIVNDNV,not soluble
10,MSLQAVTLSVLVVEDTDCERFYITHLLRQFGWLVESRSNGKAALDYLQQNEVHILVSDWRMPEMSGIELCQIVKNNHLPPFVILLTANNQTADIVLGIEAGADDFICKPFLPELLKVRMLAAMRIVQLQHNLSRNEGHHHHHH,not soluble
11,MSLAQTSDWDSVVAQAKKEGSVTFNVWYLQPQWRSFVKDFEQKYDIKVRIPEGSIDGNMNKLLAETRREQGKIDVIALSIAQLPITMGAKSLAKVDDLPGYQDAYHQLQNVDTQGYAVAFWGNQTGFAYDPQQMGDRPLPQTMEELQRFIDANPKRFGYNDPNNGGAGEAFIQRIVTTLSGDFSSESDTVDPTVIKDWQKGWQWFASNNNNITRTASGADSLTRLNDGELMLTPAWEDHLSGLQKTGAITSRLKFYVPEFGMPGGGNIASIAANSPHPAASRVFLNWLIQADTQKALNEAFGSTPMNKQLNADVKQPDTPVQFYGKAYSMQMKKEFARQVMTREGHHHHHH,soluble
12,MGSDKIHHHHHHMLVEHDISDVRVGMYIIEITVPKNKFRLAKQGWLDNERIIDALKSKSVEKVLIDASKTRIVADQNATTPSPSVATPSVTTKKGTKTSSESVKPKAASVRTKYQFNQEVIKAKQVFAESKAIQAKLFHNAQRGLPLEMESVCKITSESTDLIFNNPNALACVLNIRNKDEYLLEHSVSVSILMTMFALYLKIDRDIVNQLAIGAFLHDVGKIMVPDNILNKPGKLTDDEFFVMKSHARHSVSIMRKTPGISAISMEVAGQHHEKLNGKGYPLGLKGDKISLYGRMSSICDIFDALTATRCYKQGYPQVKCFGILRKLAENNELDIDLVDKFIKCMGVYPVGAVVQLDSNRLAIVESHNIADPIRPNVRPFYRLDPKLFEKGLDVDLSSAADEQIVKCVRADDFELDMQQIIEFLAQEA,not soluble
13,ETISAFSNQVIQRGATGDDVVELQARLQYNGYYNGKIDGVYGWGTYWAVRNFQDQFGLKEVDGLVGAKTKQTLICKSKYYREYVMEQLNKGNTFTHYGKIPLKYQTKPSKAATQKARQQAEARQKQPAEKTTQKPKANANKQQNNTPAKARKQDAVAANMPGGFSNNDIRLLAQAVYGEARGEPYEGQVAIAAVILNRLNSPLFPNSVAGVIFEPLAFTAVADGQIYMQPNETAREAVLDAINGWDPSEEALYYFNPDTATSPWIWGRPQIKRIGKHIFCE,not soluble
14,MSASPLQITEKSPEMSQTPPKDENNELEFGIPTKRSRSGRPKKICAFSSFKCYEERDIEFFIHQVSDNQIIWDRRNSLNFDGNLVHATFDKIEICCQFLARKNGENASRLWTELASEYKREKARIEQLPSGIYSEEFEIRFPFMQQMWFLEIEASELKEADSNSLEETIVNFARQKSINDAPSPSSSLSAPIEHLNSSINRLIAVIDKKSEDTTKRQIPAKYSDIVEHLIGFLDKTPRERQMEVKCKIYNFLDTIN,not soluble
15,MSGGGVIRGPAGNNDCRIYVGNLPPDIRTKDIEDVFYKYGAIRDIDLKNRRGGPPFAFVEFEDPRDAEDAVYGRDGYDYDGYRLRVEFPRSGRGTG,soluble
16,MVMSIEASCHCGETVFEVTEAPSSVTRCTCSLCAKRGSLWAYYKPAQFRLLSPPENVTTYLWGSRTVKHHFCASCGCGTYSESPDWSTGKPDFDNPKVAVNARLFDDFDLDAVPVNMIDGKNLWLEHHHHHH,soluble
17,MGSDKIHHHHHHMVLQHYFRHYCRSFCSPDDKALFMQCSRLTQVDFDQLTLGAQVLEADSHGAKVYLLTDGNFLKVFRRKRLISSALLRPYSQRFVDNAARLAQLGIPTLEVISQHKLDLPGRTAVLYRPLPGRTLLQMSRDDGFSWDTYLPRLIELIRQLHRSGVYFRSLHLGNVVVTPDQRLGLIDVADMRFLRPPLSARMIRRNVQHMVRYIERENLGDRFPLAAFEAALLTR,not soluble
18,MSIMGKVAKLDSAMQRGLDNSFAFVFGGKLVPAEIEELLKQEVQDNIVRAYEGGVESPNVFRVRVSRKDAQNLAQRYPSLADDFADRLSRYTRNQGWSTEGPVVVTIAADSGLRTGQLHASSAFDPVPQEYSHFIGVEDDVAAAAPTNDESNYESESGMNSYDADPRTEYMTAQAPDAIYTEVPVPEPKATPTVSLLLQDGSSRTYLVEEGSNIIGRSNEAHFRLPDTGVSRQHAEITWNGRDAILTDLKSTNGTTVNDTPVENWLLEDGDVITVGHSHIEVRIVEPN,not soluble
19,MGSDKIHHHHHHMFSQHSFDFLNSLAVNNDREWFKTNQQQYEDQVRTPALQFIEAMQGPILGLSPRFTAVAKKVGGSLMRPQRDSRFSKDKTPYKTNVGIQFKHFQAKDVHAPGFYVHIANDECFIAAGIWHPESKDLNAIRHCIDENPNAYQKALTQLSQAGFELTGDSLIRPPRGFDKHHPMIDELRRKDFIAIKPISSEQVCQADFIEFCTQEYQHTRALMAYLCFALDLDF,not soluble
20,GPGSMALRDIVGKQMLRQTVLQPRLKLPAGRVVSIEEGWRLARLVREGEEHASAVAVEAAEGMVAPSSVVLEDDVSKRILLLRHKKRKEGDTKAAVRYAQRSRAVPVVGKVAPEVRDIALNVLRKNPIGRAELRARHERSKAKRATKGSDSTRAKRAGRL,not soluble
21,MGSDKIHHHHHHMPTGLDCTQTMLYRRFGKTNLHLSVFSLGTMRYLADSENVQQTIATALALGINHIETARGYGKSEEYFGQAIKVGLSVARSQLYVTTKIPPTSDADSMRRYIDESLERLNLDYLDCLGIHGLNTWEHLEWVQAKGGCMKAVEEAINDGRIRHVGFSTHGSLEVIQAAINTDFFEFVNLHYYYFFQRNAPAIKLASEKDMGIFIISPADKGGKLYTAPQTLQDLCQPLSPLELNYRFLLSDQRITTLSVGPATPEELVEPLQVADSCGELTSAEITIFQRLQNHQESVLETDKCSQCYACLPCPENINIPEVLRLRNLAVAYNMTDYGQYRYGMFENAGHWFPGMKANRCTECGDCLPRCPEKLDIPNLLEDAHNRLNGRAGRRLWG,not soluble
22,AHHHHHHGSEFFEVLKKRRSIRRFQDKPVPRELIEKLLEAAFLSPSSYNKRPCHFIVVDDREKLEALSKSKLGASGLKTAPVAIVVTADESKSDVWIEDASIAAEHIHLASYALGLASFWVQIRNRMHNETKTAEEYVRELLNIPENYRVLCIIGVGYPAEDKPPHGNEVFEWEKVSYNEFGKRFK,soluble
23,EADYKQATALELATLVREKKVTSEELVKIALAITKRENPTLNAVITLREEAALTEAKALQDTGQPFLGVPLLLKGLGQSLKGESNTNGFGFLQDQVAGGTSTFVKALQNAGFIIIGQTNYPELGWKNISDSKLYGVSVNPWNPNHYSGGSSGGAGASVAAAFVPIASGSDAGGSIRIPASWTGTVGLKPSRGVIIGNSNSAKGQTVHFGLSRTVADTNALFETLLTKKDLPAGHLSQAQPIAYTTESPAGTPISAEAKEAVAEAVAFLKDQGYTLVEVKHPVDGERLMKNYYTVAAGSAGIADFMARQKLKRPLERNDVELLTWALFQTGKNITSEETTAAWTDIALQAQAMDEFYQQYPILLTPTTAATAPSIDNPLLKPEHAAQMEKIDQLSPAEQKQLIYDQWLTAFTYTPFTQQANLFGHPALSVPTYVSKEGLPLGIQFNSALNEDRTLLQLGALFENNHK,not soluble
